Results taken from paper PMC11214414.
Where two headings read alike, the source gives them in different places.

B1: CGCG RNA (ssRNA)
RNA: UUUUCGCGUUUU
B2: CGCG DNA (ssDNA)
DNA: TTTTCGCGTTTT

Legend:
Experiment in all cases: EMSA
[1] = target: HsASCC1 GDDG mutant (Homo sapiens, UniProt Q8N9N2-2 1-357, K76D;R77D)
[2] = target: T1, HsASCC1 WT (Homo sapiens, UniProt Q8N9N2-2)
[3] = target: T1, HsASCC1 WT; remark: listed apart in the source

Row | Binder | binding result [1] | binding result [2] | binding result [3]
1 | B1 | no binding | binds | –
2 | B2 | – | – | no binding
